Experimental data published in paper PMC8752837, “Structural basis of BAK activation in mitochondrial apoptosis initiation” (Nature Communications, 2022).

Key:
[1] = Liposome permeabilization by WT and mutant BAK proteins (autoactivation, or direct activation by BID BH3); assay type: biochemical; details: absence of BID BH3
Experimental: Human BAK-∆TM-His6 (BAK)[26] spontaneously permeabilizes liposomes above a certain dose (>100 nM, Fig. 1a). In these dye-release assays[43]–[46], BAK is recruited via His-tag to liposomes containing 2.5 µM of the lipid 1,2-dioleoyl-sn-glycero-3-[(N-(5-amino-1-carboxypentyl)iminodiacetic acid)succinyl] (nickel salt), DGS-NTA(Ni).
To probe autoactivation with full-length BAK, we mutated hydrophobic residues at positions (0)−(6) of the BH3 to alanine or arginine, and D83, which forms the conserved salt bridge (s) with R127, to alanine (Fig. 2a). The BH3 residues participate in autoactivation from the ligand side [hydrophobic positions (0)–(5) and D83(s)] and also from the receptor groove side [hydrophobic positions (3)–(5)] (Fig. 2a). Thus, substitutions at positions (3)–(5) should affect receptor and ligand activities and are predicted to impact BAK activation more severely than mutations of positions (0)–(2), which affect only ligand activity. […] In contrast, almost all (2)–(5) and (s) missense mutants were considerably impaired in autoactivation (Fig. 2b and Supplementary Fig. 3a). […] Despite impairment in autoactivation, all missense mutants were directly activated by BID BH3 peptide, although they induced lower level of permeabilization compared to WT BAK (Fig. 2b and Supplementary Fig. 3a).
We performed liposome permeabilization assays as previously described[43]–[46]. […] (nickel salt) [DGS NTA(Ni), 2.5 μM final concentration in each assay] (Avanti Polar Lipids). We prepared 12.5 mM fluorophore; 8-aminonaphthalene-1, 3, 6-trisulfonic acid, disodium salt (ANTS) and 45 mM quencher; p-xylene-bis-pyridiniumbromide (DPX) in LUV buffer (10 mM HEPES pH 6.8, 200 mM KCl and 5 mM MgCl2). We mixed the lipid film in ANTS/DPX solution by vortexing and sonication (~15 min) followed by extrusion through polycarbonate membrane of 2 μm pore size (Avanti Polar lipids) to generate homogenous large unilamellar vesicles (LUVs). We separated LUVs from free ANTS/DPX by S500 size exclusion chromatography and stored them at 4 °C in the dark. We prepared peptide and protein dilutions in 96-well black flat bottom plates (Costar) kept on ice. ANTS release from permeabilized liposomes causes an increase in fluorescence, which we monitored at 37 °C for 90 min using a CLARIOSTAR microplate reader (BMG Labtech) set at excitation and emission wavelengths of 360 and 530 nm, respectively. We normalized the data relative to maximum and minimum fluorescence induced by 3% CHAPS and buffer controls, respectively. We quantified liposome permabilization by integrating area under curve (AUC) of normalized traces based on the Simpson’s equation, and analyzed that data in Excel and GraphPad Prism. AUC measurements reflect the kinetic and extent of liposome permeabilization and provide quantitative means for comparison between different experimental conditions (e.g., BAK mutants with gross or partial variation in activity). Variability in permeabilization of different liposomes is common and our analyses compare among conditions investigated with the same liposomes. Although the absolute permeabilization values may differ, the trends for the same conditions are always very similar between different liposomes.

[2] = system: BCL2allKO HCT116 cells reconstituted with Dox-inducible mC-BAK; test: Dox-induced cell death by IncuCyte imaging of SYTOX Green uptake (autoactivation); assay type: cell-based, human; details: mC-BAK BCL2allKO HCT116 + Dox + qVD, average, N = 3
Source text: For mammalian cell culture experiments, we cloned the full length human BAK cDNA into pCR 2.1 TOPO vector, mutated BAK as needed, and PCR amplified the BAK gene for cloning into the BamHI and NotI sites of pRETROX mCherry vector for retroviral transduction. Amplification and mutagenesis primers are included in Supplementary Table 4. To test direct BAK activation and BAK autoactivation in cells, we produced cells stably expressing mCherry-human BAK (mC-BAK) ± human BID (BID) on a genetic background devoid of the entire BCL-2 family repertoire (all 17 BCL-2 genes), BCL2allKO HCT116, as described by the Xu Luo laboratory. We expressed WT and mutant mC-BAK using the doxycycline (Dox)-based inducible Tet-On 3G retroviral system from the pRetroX-TRE3G-Puro^R in BCL2allKO HCT116 cells expressing the Tet3G from pRetroX-Tet3G-Blast^R. We selected cells with puromycin (2.5 µg/mL) and blasticidin (2 µg/mL) starting at 2 days after retroviral transduction. To enrich for populations of cells that express mC-BAK, we treated cells with low Dox dose (25 ng/mL) and fluorescence-activated cell sorted (FACS) the mCherry positive cells. We performed the enrichment twice before cell death analysis. One caveat of our cellular system is tagging BAK with N-terminal mCherry, which may affect folding efficiency, degradation, and BAK interactome.
(§1) We seeded cells in 24-well (100,000 cells/well), 96-well (15,000 cells/well), or 384-well (10,000 cells/well) plates coated with 10 µg/mL fibronectin. After ≥24 h of attachment and recovery, we induced cell death with Dox (up to 1000 ng/mL) and monitored SYTOX Green (25 nM) uptake by Incucyte imaging. This dye marks cells with compromised plasma membrane integrity. mC-BAK expressed before 24 h, which coincided with detectable cell death. We monitored Incucyte imaging for up to 48 h, followed by endpoint FACS analysis to measure the extent of cell death based on SYTOX Green positive cells on FACSCalibur systems (BD Biosciences). As expected, cells with low mCherry fluorescence were refractory to cell death.

[3] = system: BCL2allKO HCT116 cells reconstituted with mC-BAK; test: Endpoint FACS analysis of SYTOX Green positive cells; assay type: cell-based, human; details: average, N = 3
Experimental: as §1

B1: M71A (0): BAK missense mutant (protein, UniProt Q16611 2-211, looked up, variant M71A)
Bcl-2 homologous …: ASGQGPGPPRQECGEPALPSASEEQVAQDTEEVFRSYVFYRHQQEQEAEGVAAPADPEMVTLPLQPSSTAGQVGRQLAIIGDDINRRYDSEFQTMLQHLQPTAENAYEYFTKIATSLFESGINWGRVVALLGFGYRLALHVYQHGLTGFLGQVTRFVVDFMLHHCIARWIAQRGGWVAALNLGNGPILNVLVVLGVVLLGQFVVRRFFKS
[1]
  autoactivation in liposome permeabilization assays: behave similar to WT BAK

B2: I81A (3): BAK missense mutant (protein, UniProt Q16611 2-211, looked up, variant I81A)
Bcl-2 homologous …: ASGQGPGPPRQECGEPALPSASEEQVAQDTEEVFRSYVFYRHQQEQEAEGVAAPADPEMVTLPLQPSSTMGQVGRQLAIAGDDINRRYDSEFQTMLQHLQPTAENAYEYFTKIATSLFESGINWGRVVALLGFGYRLALHVYQHGLTGFLGQVTRFVVDFMLHHCIARWIAQRGGWVAALNLGNGPILNVLVVLGVVLLGQFVVRRFFKS
[2]; Dox 100 ng/mL
  AUC (48 hr) of SYTOX Green counts/confluence: 55640.5
[2]; Dox 1000 ng/mL
  AUC (48 hr) of SYTOX Green counts/confluence: 85389.8
[3]; Dox 100 ng/mL
  flow cytometry SYTOX Green counts/confluence (48 hr): 37.7333
[3]; Dox 1000 ng/mL
  flow cytometry SYTOX Green counts/confluence (48 hr): 54.2

B3: R42A: BAK mutant in helix α1 electrostatic network (protein, UniProt Q16611 2-211, looked up, variant R42A)
Bcl-2 homologous …: ASGQGPGPPRQECGEPALPSASEEQVAQDTEEVFRSYVFYAHQQEQEAEGVAAPADPEMVTLPLQPSSTMGQVGRQLAIIGDDINRRYDSEFQTMLQHLQPTAENAYEYFTKIATSLFESGINWGRVVALLGFGYRLALHVYQHGLTGFLGQVTRFVVDFMLHHCIARWIAQRGGWVAALNLGNGPILNVLVVLGVVLLGQFVVRRFFKS
[1]
  autoactivation in liposome permeabilization assays: hyperactive compared to WT

B4: R137A: BAK mutant in helix α1 electrostatic network (protein, UniProt Q16611 2-211, looked up, variant R137A)
Bcl-2 homologous …: ASGQGPGPPRQECGEPALPSASEEQVAQDTEEVFRSYVFYRHQQEQEAEGVAAPADPEMVTLPLQPSSTMGQVGRQLAIIGDDINRRYDSEFQTMLQHLQPTAENAYEYFTKIATSLFESGINWGRVVALLGFGYALALHVYQHGLTGFLGQVTRFVVDFMLHHCIARWIAQRGGWVAALNLGNGPILNVLVVLGVVLLGQFVVRRFFKS
[1]
  autoactivation in liposome permeabilization assays: hyperactive compared to WT

B5: E46A: BAK mutant in helix α1 electrostatic network (protein, UniProt Q16611 2-211, looked up, variant E46A)
Bcl-2 homologous …: ASGQGPGPPRQECGEPALPSASEEQVAQDTEEVFRSYVFYRHQQAQEAEGVAAPADPEMVTLPLQPSSTMGQVGRQLAIIGDDINRRYDSEFQTMLQHLQPTAENAYEYFTKIATSLFESGINWGRVVALLGFGYRLALHVYQHGLTGFLGQVTRFVVDFMLHHCIARWIAQRGGWVAALNLGNGPILNVLVVLGVVLLGQFVVRRFFKS
[1]
  autoactivation in liposome permeabilization assays: hyperactive compared to WT

B6: I85A (4): BAK missense mutant (protein, UniProt Q16611 2-211, looked up, variant I85A)
Bcl-2 homologous …: ASGQGPGPPRQECGEPALPSASEEQVAQDTEEVFRSYVFYRHQQEQEAEGVAAPADPEMVTLPLQPSSTMGQVGRQLAIIGDDANRRYDSEFQTMLQHLQPTAENAYEYFTKIATSLFESGINWGRVVALLGFGYRLALHVYQHGLTGFLGQVTRFVVDFMLHHCIARWIAQRGGWVAALNLGNGPILNVLVVLGVVLLGQFVVRRFFKS
[1]
  autoactivation in liposome permeabilization assays: activity comparable to WT
